Target: the molecule itself
Experiment: crystal structure

B1: MarR family protein Rv2887 (natural protein)
chain: MGLADDAPLGYLLYRVGAVLRPEVSAALSPLGLTLPEFVCLRMLSQSPGLSSAELARHASVTPQAMNTVLRKLEDAGAVARPASVSSGRSLPATLTARGRALAKRAEAVVRAADARVLARLTAPQQREFKRMLEKLGSD
notes: also called MarR-like protein Rv2887; apo-Rv2887
binding result: binds
